Blank lines part the entries; values can stand above or below the binder they belong to.
How the values were obtained:
human LILRA1 [1] = biological target: T1, human LILRA1 (human, UniProt O75019 17-461, limits assumed); test: ELISA, OD450, antibody at 200 nM; + = 2-fold over ISO
T1 construct: bought protein coated for ELISA; also called hLILRA1
T1 sequence (O75019 17-461 limits assumed): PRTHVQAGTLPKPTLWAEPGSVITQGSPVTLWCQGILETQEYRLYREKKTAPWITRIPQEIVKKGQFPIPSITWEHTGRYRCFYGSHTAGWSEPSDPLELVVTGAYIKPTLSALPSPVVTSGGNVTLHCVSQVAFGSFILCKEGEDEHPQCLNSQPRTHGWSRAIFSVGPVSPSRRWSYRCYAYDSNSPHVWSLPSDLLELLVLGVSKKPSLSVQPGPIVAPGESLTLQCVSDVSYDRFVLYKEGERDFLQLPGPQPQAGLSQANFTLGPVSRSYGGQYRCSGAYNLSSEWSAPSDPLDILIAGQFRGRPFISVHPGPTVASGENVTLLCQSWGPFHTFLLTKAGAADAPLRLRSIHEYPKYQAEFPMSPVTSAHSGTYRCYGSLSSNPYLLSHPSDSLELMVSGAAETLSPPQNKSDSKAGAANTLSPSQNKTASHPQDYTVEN

human LILRB3 [2] = biological target: T2, human LILRB3 (human, UniProt O75022 24-443); test: as above
T2 construct: bought protein coated for ELISA; also called hLILRB3

human LILRB5 = biological target: T3, human LILRB5 (human, UniProt O75023 24-458); test: as above
T3 construct: bought protein coated for ELISA; also called hLILRB5

human LILRA3 = biological target: T4, human LILRA3 (human, UniProt Q8N6C8 24-439); test: as above
T4 construct: bought protein coated for ELISA; also called hLILRA3
T4 sequence (Q8N6C8 24-439 limits assumed): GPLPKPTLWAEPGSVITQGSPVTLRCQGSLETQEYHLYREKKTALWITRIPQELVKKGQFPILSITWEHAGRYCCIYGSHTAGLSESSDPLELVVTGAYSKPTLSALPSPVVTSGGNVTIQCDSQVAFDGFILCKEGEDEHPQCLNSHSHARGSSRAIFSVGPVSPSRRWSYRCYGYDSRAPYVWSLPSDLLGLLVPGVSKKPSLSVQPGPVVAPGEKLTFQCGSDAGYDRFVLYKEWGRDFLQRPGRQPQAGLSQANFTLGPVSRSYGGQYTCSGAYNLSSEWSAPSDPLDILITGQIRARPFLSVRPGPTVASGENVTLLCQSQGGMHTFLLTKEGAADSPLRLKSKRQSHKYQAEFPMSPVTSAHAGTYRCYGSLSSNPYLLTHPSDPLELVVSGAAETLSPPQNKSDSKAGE

human LILRB4 = biological target: T5, human LILRB4 (human, UniProt Q8NHJ6 22-259); test: as above
T5 construct: bought protein coated for ELISA; also called hLILRB4

human LILRA4 = biological target: T6, human LILRA4 (human, UniProt P59901 24-446); test: as above
T6 construct: bought protein coated for ELISA; also called hLILRA4

[3] = biological target: T7, human LILRB2 expressed on CHOK1 cells (human, UniProt Q8N423 22-597); test: flow cytometry (FACS) binding to CHOK1-hLILRB2 cells
T7 construct: whole, on cells; also called CHOK1-hLILRB2; CHOK1-LILRB2
T7 sequence (Q8N423 22-597): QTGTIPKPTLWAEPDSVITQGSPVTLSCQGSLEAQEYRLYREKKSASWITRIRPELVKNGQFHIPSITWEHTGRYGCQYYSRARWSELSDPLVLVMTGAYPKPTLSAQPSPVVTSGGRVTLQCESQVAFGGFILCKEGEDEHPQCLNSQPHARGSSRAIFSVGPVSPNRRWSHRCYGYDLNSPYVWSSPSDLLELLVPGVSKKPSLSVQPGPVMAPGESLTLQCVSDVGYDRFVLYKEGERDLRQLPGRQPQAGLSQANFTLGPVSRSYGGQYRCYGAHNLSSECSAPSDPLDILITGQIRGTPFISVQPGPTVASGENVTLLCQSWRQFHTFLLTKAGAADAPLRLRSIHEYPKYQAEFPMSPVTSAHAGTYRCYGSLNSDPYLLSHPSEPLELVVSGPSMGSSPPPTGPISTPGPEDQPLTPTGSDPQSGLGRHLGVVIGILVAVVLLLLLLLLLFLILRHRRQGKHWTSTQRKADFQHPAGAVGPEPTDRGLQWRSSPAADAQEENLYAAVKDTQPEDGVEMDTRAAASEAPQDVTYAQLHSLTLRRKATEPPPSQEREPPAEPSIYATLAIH

[4] = biological target: T8, human LILRB1 expressed on CHOK1 cells (human, UniProt Q8NHL6 24-650); test: cell based RBA on CHOK1-hLILRB1 cells, flow cytometry; competitor HLA-G
T8 construct: whole, on cells; also called CHOK1-hLILRB1; CHOK1-LILRB1
T8 sequence (Q8NHL6 24-650): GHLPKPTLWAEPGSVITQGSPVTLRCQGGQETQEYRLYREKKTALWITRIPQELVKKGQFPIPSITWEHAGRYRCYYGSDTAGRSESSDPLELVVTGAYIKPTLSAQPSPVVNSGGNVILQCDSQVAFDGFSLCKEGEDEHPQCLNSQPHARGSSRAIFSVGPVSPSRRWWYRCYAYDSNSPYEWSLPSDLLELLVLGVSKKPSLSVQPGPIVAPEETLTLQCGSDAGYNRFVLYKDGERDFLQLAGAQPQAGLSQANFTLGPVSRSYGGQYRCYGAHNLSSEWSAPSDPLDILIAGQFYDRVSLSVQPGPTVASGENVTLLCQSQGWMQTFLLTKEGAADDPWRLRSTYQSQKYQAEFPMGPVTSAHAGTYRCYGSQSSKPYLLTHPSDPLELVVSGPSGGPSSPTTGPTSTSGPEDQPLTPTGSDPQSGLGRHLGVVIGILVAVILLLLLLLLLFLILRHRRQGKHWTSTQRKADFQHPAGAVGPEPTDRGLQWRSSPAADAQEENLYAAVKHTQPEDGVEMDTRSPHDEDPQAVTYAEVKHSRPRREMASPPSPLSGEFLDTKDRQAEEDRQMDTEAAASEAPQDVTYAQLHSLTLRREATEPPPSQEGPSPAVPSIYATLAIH

[5] = biological target: T8, human LILRB1 expressed on CHOK1 cells; test: flow cytometry (FACS) binding to CHOK1-hLILRB1 cells
[6] = biological target: T7, human LILRB2 expressed on CHOK1 cells; test: cell based RBA on CHOK1-hLILRB2 cells, flow cytometry; competitor HLA-G
[7] = biological target: T9, human LILRB1 protein (Octet analyte) (human, UniProt Q8NHL6 24-458, limits assumed); test: Octet (BLI), off rate ranking, kdis
T9 construct: The construct used in the Octet assay is not described; also called hLILRB1
T9 sequence (Q8NHL6 24-458 limits assumed): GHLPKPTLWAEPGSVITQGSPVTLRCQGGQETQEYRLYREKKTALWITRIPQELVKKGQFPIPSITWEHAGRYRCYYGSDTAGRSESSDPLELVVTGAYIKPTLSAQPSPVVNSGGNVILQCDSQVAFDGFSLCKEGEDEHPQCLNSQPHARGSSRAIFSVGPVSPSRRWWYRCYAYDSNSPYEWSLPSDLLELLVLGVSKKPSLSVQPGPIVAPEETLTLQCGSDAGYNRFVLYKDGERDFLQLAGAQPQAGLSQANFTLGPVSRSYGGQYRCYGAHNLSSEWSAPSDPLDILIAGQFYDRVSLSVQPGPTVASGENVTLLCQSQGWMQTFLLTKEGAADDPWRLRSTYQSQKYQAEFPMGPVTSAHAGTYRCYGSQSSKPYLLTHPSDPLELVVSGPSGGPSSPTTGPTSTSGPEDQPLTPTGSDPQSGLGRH

[8] = biological target: T10, human LILRB2 protein (Octet analyte) (human, UniProt Q8N423 22-460, limits assumed); test: Octet (BLI), off rate ranking, kdis
T10 construct: The construct used in the Octet assay is not described; also called hLILRB2
T10 sequence (Q8N423 22-460 limits assumed): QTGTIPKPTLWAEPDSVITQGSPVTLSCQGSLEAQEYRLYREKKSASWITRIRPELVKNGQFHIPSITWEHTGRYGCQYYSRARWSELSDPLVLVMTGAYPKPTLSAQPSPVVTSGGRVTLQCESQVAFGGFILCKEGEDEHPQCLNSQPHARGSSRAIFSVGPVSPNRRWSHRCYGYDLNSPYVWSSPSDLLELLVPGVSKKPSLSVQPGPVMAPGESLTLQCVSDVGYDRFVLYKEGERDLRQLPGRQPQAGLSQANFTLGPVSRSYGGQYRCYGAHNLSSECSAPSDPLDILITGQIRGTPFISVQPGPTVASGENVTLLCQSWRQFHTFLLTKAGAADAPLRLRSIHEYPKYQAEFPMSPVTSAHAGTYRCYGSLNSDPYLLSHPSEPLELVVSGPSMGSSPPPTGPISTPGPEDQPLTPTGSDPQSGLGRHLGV

Biotinylated LILRB1 [9] = biological target: T11, Biotinylated LILRB1 (UniProt Q8NHL6 24-458, limits assumed, biotinylated (sites not given)); test: epitope binning ELISA, coated 1 ug/ml; competitor hz73D1.v1 at 20 ug/ml
T11 sequence (Q8NHL6 24-458 limits assumed): as the sequence (Q8NHL6 24-458 limits assumed) above

Biotinylated LILRB1 [10] = biological target: T11, Biotinylated LILRB1; test: epitope binning ELISA, coated 1 ug/ml; competitor LK-RB1-16 at 20 ug/ml
Biotinylated LILRB1 [11] = biological target: T11, Biotinylated LILRB1; test: epitope binning ELISA, coated 1 ug/ml; competitor LK-RB1-33 at 20 ug/ml
Biotinylated LILRB1 [12] = biological target: T11, Biotinylated LILRB1; test: epitope binning ELISA, coated 1 ug/ml; competitor LK-RB1-12 at 20 ug/ml
Biotinylated LILRB1 [13] = biological target: T11, Biotinylated LILRB1; test: epitope binning ELISA, coated 1 ug/ml; competitor LK-RB1-47 at 20 ug/ml
human LILRA2 [14] = biological target: T12, human LILRA2 (human, UniProt Q8N149 24-449, limits assumed); test: Octet off-rate ranking;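 further: antibody dissociation rate constants against cynomolgus LILRB2 plus human LILRB1, LILRB2, LILRA1 and LILRA2, measured on an Octet instrument to rank binding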
T12 construct: also called hLILRA2
T12 sequence (Q8N149 24-449 limits assumed): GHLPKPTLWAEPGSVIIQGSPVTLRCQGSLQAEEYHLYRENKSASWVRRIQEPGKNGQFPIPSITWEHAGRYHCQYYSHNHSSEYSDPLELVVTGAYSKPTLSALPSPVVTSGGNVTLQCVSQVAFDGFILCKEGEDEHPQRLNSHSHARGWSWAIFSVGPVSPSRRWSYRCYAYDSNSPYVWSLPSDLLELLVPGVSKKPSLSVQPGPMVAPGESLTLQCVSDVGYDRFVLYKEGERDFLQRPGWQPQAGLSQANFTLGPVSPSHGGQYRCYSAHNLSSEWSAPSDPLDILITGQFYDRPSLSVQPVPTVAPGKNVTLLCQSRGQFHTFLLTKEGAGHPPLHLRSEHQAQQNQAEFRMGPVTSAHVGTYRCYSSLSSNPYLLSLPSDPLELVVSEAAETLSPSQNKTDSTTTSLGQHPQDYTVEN

human LILRA1 [15] = biological target: T13, human LILRA1 (human, UniProt O75019 17-461, limits assumed); test: Octet off-rate ranking;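 further: antibody dissociation rate constants against cynomolgus LILRB2 plus human LILRB1, LILRB2, LILRA1 and LILRA2, measured on an Octet instrument to rank binding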
T13 construct: also called hLILRA1
T13 sequence (O75019 17-461 limits assumed): as the sequence (O75019 17-461 limits assumed) above

human LILRB1 = biological target: T14, human LILRB1 (human, UniProt Q8NHL6 24-458, limits assumed); test: Octet off-rate ranking;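 further: antibody dissociation rate constants against cynomolgus LILRB2 plus human LILRB1, LILRB2, LILRA1 and LILRA2, measured on an Octet instrument to rank binding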
T14 construct: also called hLILRB1
T14 sequence (Q8NHL6 24-458 limits assumed): as the sequence (Q8NHL6 24-458 limits assumed) above

Biotinylated LILRB1 [16] = biological target: T11, Biotinylated LILRB1; test: epitope binning ELISA, coated 1 ug/ml; competitor LK-RB1-31 at 20 ug/ml
Biotinylated LILRB1 [17] = biological target: T11, Biotinylated LILRB1; test: epitope binning ELISA, coated 1 ug/ml; competitor LK-RB1-9 at 20 ug/ml
Biotinylated LILRB1 [18] = biological target: T11, Biotinylated LILRB1; test: epitope binning ELISA, coated 1 ug/ml; competitor 15G8 at 20 ug/ml
human LILRA2 [19] = biological target: T15, human LILRA2 (human, UniProt Q8N149 24-449); test: ELISA, 200 nM antibody, OD450; + = 2-fold over ISO
T15 construct: Bought protein; also called hLILRA2
T15 sequence (Q8N149 24-449 limits assumed): as the sequence (Q8N149 24-449 limits assumed) above

human LILRA1 [20] = biological target: T16, human LILRA1 (human, UniProt O75019 17-461, limits assumed); test: ELISA, 200 nM antibody, OD450; + = 2-fold over ISO
T16 construct: Bought protein; also called hLILRA1
T16 sequence (O75019 17-461 limits assumed): as the sequence (O75019 17-461 limits assumed) above

human LILRB3 [21] = biological target: T17, human LILRB3 (human, UniProt O75022 24-443); test: ELISA, OD450, antibody at 200 nM; + = 2-fold over ISO; remark: listed apart in the source
T17 construct: bought protein coated for ELISA; also called hLILRB3

human LILRA2 [22] = biological target: T18, human LILRA2 (human, UniProt Q8N149 24-449); test: as above
T18 construct: bought protein coated for ELISA; also called hLILRA2
T18 sequence (Q8N149 24-449 limits assumed): as the sequence (Q8N149 24-449 limits assumed) above

- binding result (human LILRB4): binds
- binding result (human LILRA4): binds
B2: LK-RB1-1 (antibody, human IgG4 S228P, kappa, V domains shown)
VH: QIQLVQSGPELKKPGETVKISCKASGYSFTNFGMSWVKQAPGKALKWMGWINTYSGVPTYADDFKGRFAFSLETSANTAYLQINNLKNEDSATYFCARRRRTFDGYLCFDYWGQGATLTVSS
VL: QLVLTQSSSASFSLGASAKLTCTLSSQHSTYSIDWYQQQPLKPPKYVMELKTDGSHRTGDGIPDRFSGSSSGADRYLSISNIQPEDEAIYICGVGDTIKEQFVYVFGGGTKVTVLR
notes: anti-LILRB1 antibody

- binding result (human LILRA2 [19]): binds
- binding result (human LILRA1 [20]): binds
B5: LK-RB2-29 (antibody, human IgG4 S228P, kappa, V domains shown)
VH: QVQLQQSGAELARPGASVKLSCKASGYTFTSYWMQWVKQRPGQGLEWIGAIYPGDGDTRYTQKFKGKATLTADKSSSTAYMQLSSLASEDSAVYYCARGYYGSSYADYFDYWGQGTTLTVSS
VL: DIQMTQSPASLSASVGETVTITCRASGNIHNYLAWYQQKQGKSPQLLVYNAKTLADGVPSRFSGSGSGTQYSLKINSLQPEDFGSYYCQHFWSTPPTFGGGTKLEIKR

- binding result (human LILRA3): binds
B6: LK-RB1-45 (antibody, human IgG4 S228P, kappa, V domains shown)
VH: QVQLQQSGTELARPGASVKLSCKASGYTFTNFWMHWIKQRPGQGLEWIGYVNPTSDYTKYNQKFKDKATLTADKSSSTAYMQLNSLTYEDSAVYYCTRSSLYDTNYVFDSWGQGTTLTVSS
VL: DILLTQSPAILSVSPGERVSFSCRASQSIGRSIHWYQQRTNGSPRLLIKYASESISGIPSRFSGGGSGTDFTLSISNVESEDIADYYCQQSNNWPFTFGSGTKLEIKR
notes: anti-LILRB1 clone from mouse hybridoma

- binding result (human LILRB3 [21]): binds
- binding result (human LILRA2 [22]): binds
B8: LK-RB1-5 (antibody, human IgG4 S228P, kappa, V domains shown)
VH: QVQLQQPGAELVKPGASVKLSCKASGYTFTDFWIHWVKQRPGQGLEWIGMIHPNSGSTNFNEKFRAKATLTVDKSSSTAYMRLSSLTSEDSAVYYCARSGDGYSNPMDYWGQGTSVTVSS
VL: QIVLSQSPAILSASPGEKVTLTCRASSSVSYMHWYQQKPGSSPKPWIYATSNLASGVPVRFSGSGSGTSYSLTISRMQTEDAATYYCQQWRRSPYTFGGGTKLEIKR
notes: anti-LILRB1 antibody

- binding result (human LILRA2 [19]): binds
- binding result (human LILRA1 [20]): binds
B10: LK-RB2-41 (antibody, human IgG4 S228P, kappa, V domains shown)
VH: EVQLQLSGPELVKPGASVKMSCKASGYTFTDYNMHWVKQSHGKSLEWIGYINPNNGGTTYNQKFKGKATLTVNKSSSTAYMELRSLTSEDSAVYYCARAPYYGSSYLLAYWGQGTLVTVSA
VL: DIVMTQSHKFMSTSVGDRVSITCKASQDVSTAVAWYQQKPGQSPKLLIYSASYRYTGVPDRFTGSGSGTDFTFTISSVQAEDLAIYYCQQHYSIPWTFGGGTKLEIKR

The next lines start with the binder.

B1: LK-RB1-39 (antibody, human IgG4 S228P, kappa, V domains shown)
VH: EVQLQQSGAELVRPGASVKLSCTASGFNIKDDYVHWVNQRPEQGLEWIGWIDPENGDTGYASKFQDKATITADTSSNTAYLHLSSLTSEDTAVYYCTTTRWTGSYWGQGTTLTVSS
VL: QIVLTQSPAIMSASPGEKVTITCSASSSVNYMHWFQQKPGSSPKLWIYSTANLASGVPARFSGSGSGTSYSLTISRMEAEDAATYYCQQRSSYPPTWTFGGGTKLEIKR
notes: as for B6
- binding result (human LILRA1 [1]): binds
- binding result (human LILRB3 [2]): binds
- binding result (human LILRB5): binds
- binding result (human LILRA3): binds

B3: LK-RBi-08 (bispecific antibody, human IgG4 S228P, kappa)
heavy: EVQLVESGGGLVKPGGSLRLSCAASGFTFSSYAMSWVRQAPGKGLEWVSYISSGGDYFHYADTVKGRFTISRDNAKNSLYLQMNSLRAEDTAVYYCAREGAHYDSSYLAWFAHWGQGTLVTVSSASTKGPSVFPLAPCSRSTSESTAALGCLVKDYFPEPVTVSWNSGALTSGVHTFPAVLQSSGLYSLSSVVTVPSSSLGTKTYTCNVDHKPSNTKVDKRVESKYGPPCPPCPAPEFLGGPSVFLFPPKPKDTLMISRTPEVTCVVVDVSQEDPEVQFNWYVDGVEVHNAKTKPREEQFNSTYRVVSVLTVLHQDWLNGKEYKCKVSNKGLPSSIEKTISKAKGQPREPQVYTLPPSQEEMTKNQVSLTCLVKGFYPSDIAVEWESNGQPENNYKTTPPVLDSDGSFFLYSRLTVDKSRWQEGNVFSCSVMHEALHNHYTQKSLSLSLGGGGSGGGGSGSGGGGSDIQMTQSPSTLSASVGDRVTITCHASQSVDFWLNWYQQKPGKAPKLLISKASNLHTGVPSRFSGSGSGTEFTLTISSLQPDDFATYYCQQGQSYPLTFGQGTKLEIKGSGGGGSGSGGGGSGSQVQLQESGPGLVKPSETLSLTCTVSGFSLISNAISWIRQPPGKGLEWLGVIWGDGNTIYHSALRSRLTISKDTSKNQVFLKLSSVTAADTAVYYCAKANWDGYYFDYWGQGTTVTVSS
light: DIQMTQSPSSVSASVGDRVTITCRASENIYSNLAWYQQKPGKAPKLLIYAATNLAEGVPSRFSGSGSGTDYTLTISSLQPEDFATYYCQQFWDNPLTFGQGTKLEIKRTVAAPSVFIFPPSDEQLKSGTASVVCLLNNFYPREAKVQWKVDNALQSGNSQESVTEQDSKDSTYSLSSTLTLSKADYEKHKVYACEVTHQGLSSPVTKSFNRGEC
- EC50 [3]: 0.37 nM
- EC50 [4]: 6.03 µg/mL
- EC50 [5]: 2.66 nM
- EC50 [6]: 0.28 µg/mL
- koff [7]: 0.000166 s⁻¹
- koff [8]: 5.68e-05 s⁻¹

B4: 15G8 (antibody, human IgG4 S228P, kappa, V domains shown)
VH: DVQLQGSGPGLVKPSETLSLTCSVTGYSITSGYYWNWIRQFPGKKLEWMGYISYDGSNNYNPSLKNRITISRDTSKNQFSLKLNSVTAADTATYYCAHGYSYYYAMDAWGQGTSVTVSS
VL: DIQMTQSPSSLSASVGDRVTITCRTSQDISNYLNWYQQKPGKAVKLLISYTSRLHSGVPSRFSGSGSGTDYTLTISSLQPEDFATYYCQQGNTLPTFGQGTKLEIKR
- Inhibition % (Biotinylated LILRB1 [9]): -0.56%
- Inhibition % (Biotinylated LILRB1 [10]): -0.72%
- Inhibition % (Biotinylated LILRB1 [11]): 90.5%
- Inhibition % (Biotinylated LILRB1 [12]): 3.58%
- Inhibition % (Biotinylated LILRB1 [13]): 13.5%
- koff (human LILRA2 [14]): 0.00117 s⁻¹
- koff (human LILRA1 [15]): 0.000278 s⁻¹
- koff (human LILRB1): 0.00389 s⁻¹
- Inhibition % (Biotinylated LILRB1 [16]): -0.67%
- Inhibition % (Biotinylated LILRB1 [17]): 92.1%
- Inhibition % (Biotinylated LILRB1 [18]): 73%

B7: LK-RBi-05 (bispecific antibody, human IgG4 S228P, kappa)
heavy: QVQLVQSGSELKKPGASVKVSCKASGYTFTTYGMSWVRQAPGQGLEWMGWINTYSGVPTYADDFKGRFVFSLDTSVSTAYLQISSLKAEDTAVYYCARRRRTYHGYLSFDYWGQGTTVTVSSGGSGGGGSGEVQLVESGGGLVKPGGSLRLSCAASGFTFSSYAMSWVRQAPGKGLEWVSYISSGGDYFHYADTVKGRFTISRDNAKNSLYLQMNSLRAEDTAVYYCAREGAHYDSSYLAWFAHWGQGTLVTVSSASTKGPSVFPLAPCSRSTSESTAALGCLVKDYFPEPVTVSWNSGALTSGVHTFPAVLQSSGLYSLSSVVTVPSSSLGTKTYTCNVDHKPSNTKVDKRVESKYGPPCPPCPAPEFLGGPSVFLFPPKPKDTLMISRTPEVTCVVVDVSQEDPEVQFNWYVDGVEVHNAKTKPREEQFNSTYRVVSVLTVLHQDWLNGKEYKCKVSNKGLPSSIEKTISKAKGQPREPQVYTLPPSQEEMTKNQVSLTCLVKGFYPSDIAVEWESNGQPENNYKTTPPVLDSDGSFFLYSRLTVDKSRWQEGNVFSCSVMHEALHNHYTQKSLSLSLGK
light: DIQMTQSPSSLSASVGDRVTITCETSENIYGALNWYQQKPGKAPKLLIYGATNLAEGVPSRFSGSGSGTDFTFTISSLQPEDIATYYCQNVLNTPWTFGGGTKLEIKGGSGGGGSGDIQMTQSPSSVSASVGDRVTITCRASENIYSNLAWYQQKPGKAPKLLIYAATNLAEGVPSRFSGSGSGTDYTLTISSLQPEDFATYYCQQFWDNPLTFGQGTKLEIKRTVAAPSVFIFPPSDEQLKSGTASVVCLLNNFYPREAKVQWKVDNALQSGNSQESVTEQDSKDSTYSLSSTLTLSKADYEKHKVYACEVTHQGLSSPVTKSFNRGEC
- EC50 [3]: 0.73 nM
- EC50 [4]: 4.2 µg/mL
- EC50 [5]: 2.32 nM
- EC50 [6]: 0.43 µg/mL
- koff [7]: 0.00021 s⁻¹
- koff [8]: 8.24e-06 s⁻¹

B9: LK-RB1-9 (antibody, human IgG4 S228P, kappa, V domains shown)
VH: QIQLVQSGPELKKPGETVKISCTASGYTFTTYGMSWVKQAPGKGLKWMGWINTYSGVPTYADDFKGRFAFSLETSASTAYLEINNVKNEDTATYFCARRRRTYHGYLCFDYWGQGTTLTVSS
VL: DIQMTQSPVSLSASVGETVTITCETSENIYGALNWYQRKQGKSPQLLIYGATNLADGMSSRFSGSGSGRQYSLEISSLHPDDVASYYCQNVLNTPWTFGGGTKLEIKR
- Inhibition % (Biotinylated LILRB1 [9]): 88.1%
- Inhibition % (Biotinylated LILRB1 [10]): 21.9%
- Inhibition % (Biotinylated LILRB1 [11]): 67.4%
- Inhibition % (Biotinylated LILRB1 [12]): 92.1%
- Inhibition % (Biotinylated LILRB1 [13]): 89.1%
- koff (human LILRA2 [14]): 0.000885 s⁻¹
- koff (human LILRA1 [15]): 0.000155 s⁻¹
- koff (human LILRB1): 0.000162 s⁻¹
- Inhibition % (Biotinylated LILRB1 [16]): 10.2%
- Inhibition % (Biotinylated LILRB1 [17]): 73.9%
- Inhibition % (Biotinylated LILRB1 [18]): 48.6%

Source: patent publication US20260234247A1 (published 2026)
